Measured values reported in patent publication US20210115143A1.

How the values were obtained:
[1] = target: PD-L1-His tagged, human recombinant, HEK293-derived, Phe19-Thr239 (R&D systems Cat #9049-B7-100) (human) (UniProt Q9NZQ7); assay: SPR (Reichert), antibody captured by immobilized anti-human IgG, PD-L1-His in solution, 1:1 model, 25 C
[2] = target: human PD-L1 on primary human cells in the dendritic cell / CD4+ T cell mixed lymphocyte reaction (human) (UniProt Q9NZQ7); assay: cell-based or functional assay
[3] = target: PD-L1-His tagged, human recombinant, HEK293-derived, Phe19-Thr239 (R&D systems Cat #9049-B7-100) (human) (UniProt Q9NZQ7); assay: SPR, captured antibody, PD-L1-His in solution
[4] = target: PD-L1-Fc, human IgG Fc fusion protein, human recombinant, HEK293-derived, Phe19-Thr239 (R&D systems Cat #156-B7-100) (human) (UniProt Q9NZQ7); assay: SPR (Reichert), PD-L1-Fc immobilized, antibody in solution, 1:1 model, 25 C
[5] = target: PD-L1-His tagged, human recombinant, HEK293-derived, Phe19-Thr239 (R&D systems Cat #9049-B7-100) (human) (UniProt Q9NZQ7); assay: SPR (Reichert), antibody immobilized directly, PD-L1-His in solution, 1:1 model, 25 C
C1q (Sigma, Cat #C1740) = C1q (Sigma, Cat #C1740) (UniProt P02745); assay: ELISA: antibody coated at 0-25 µg/mL, C1q at 2 µg/mL, anti-C1q-HRP
[6] = target: CD32a receptor (Fc gamma receptor) (UniProt P12318); assay: method not stated
[7] = target: CD16a receptor (Fc gamma receptor) (UniProt P08637); assay: method not stated
Sequence of CD16a receptor (Fc gamma receptor) (P08637 17-208 limits assumed): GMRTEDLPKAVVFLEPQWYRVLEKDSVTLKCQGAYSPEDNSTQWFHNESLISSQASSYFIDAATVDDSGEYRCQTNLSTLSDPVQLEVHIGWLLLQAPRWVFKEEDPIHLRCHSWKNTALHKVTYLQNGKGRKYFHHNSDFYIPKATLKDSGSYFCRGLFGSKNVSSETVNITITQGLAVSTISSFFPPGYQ

Sequence of PD-L1-His tagged, human recombinant, HEK293-derived, Phe19-Thr239 (R&D systems Cat #9049-B7-100) (human) (Q9NZQ7 19-239 limits assumed): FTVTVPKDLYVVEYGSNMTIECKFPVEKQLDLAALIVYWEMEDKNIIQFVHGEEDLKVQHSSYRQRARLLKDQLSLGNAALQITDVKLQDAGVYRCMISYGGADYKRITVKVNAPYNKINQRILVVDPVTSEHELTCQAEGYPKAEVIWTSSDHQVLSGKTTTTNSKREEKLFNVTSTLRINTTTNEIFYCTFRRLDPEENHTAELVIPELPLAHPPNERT
Sequence of C1q (Sigma, Cat #C1740) (P02745 23-245 limits assumed, chain 1 of 3): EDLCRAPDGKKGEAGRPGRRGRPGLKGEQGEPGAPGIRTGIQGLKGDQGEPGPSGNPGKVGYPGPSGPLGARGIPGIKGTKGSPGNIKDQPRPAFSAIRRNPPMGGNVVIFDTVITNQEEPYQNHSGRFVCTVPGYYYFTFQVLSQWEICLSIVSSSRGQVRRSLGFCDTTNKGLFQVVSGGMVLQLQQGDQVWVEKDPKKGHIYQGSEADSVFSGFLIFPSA
Sequence of C1q (Sigma, Cat #C1740) (P02746 28-253 limits assumed, chain 2 of 3, further chain): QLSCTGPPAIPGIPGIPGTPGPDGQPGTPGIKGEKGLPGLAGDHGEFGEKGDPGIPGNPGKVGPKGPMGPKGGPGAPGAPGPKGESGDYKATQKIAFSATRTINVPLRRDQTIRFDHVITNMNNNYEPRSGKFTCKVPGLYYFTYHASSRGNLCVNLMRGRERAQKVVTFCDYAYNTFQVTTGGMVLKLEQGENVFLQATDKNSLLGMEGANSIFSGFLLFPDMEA
Sequence of C1q (Sigma, Cat #C1740) (P02747 29-245 limits assumed, chain 3 of 3, further chain): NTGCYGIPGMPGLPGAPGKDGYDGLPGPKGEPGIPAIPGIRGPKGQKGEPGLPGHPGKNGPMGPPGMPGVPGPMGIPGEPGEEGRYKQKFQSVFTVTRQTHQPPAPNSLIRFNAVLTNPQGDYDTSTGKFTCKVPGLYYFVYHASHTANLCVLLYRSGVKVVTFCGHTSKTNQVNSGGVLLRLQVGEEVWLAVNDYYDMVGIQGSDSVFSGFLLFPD
Sequence of human PD-L1 on primary human cells in the dendritic cell / CD4+ T cell mixed lymphocyte reaction (human) (Q9NZQ7 19-290): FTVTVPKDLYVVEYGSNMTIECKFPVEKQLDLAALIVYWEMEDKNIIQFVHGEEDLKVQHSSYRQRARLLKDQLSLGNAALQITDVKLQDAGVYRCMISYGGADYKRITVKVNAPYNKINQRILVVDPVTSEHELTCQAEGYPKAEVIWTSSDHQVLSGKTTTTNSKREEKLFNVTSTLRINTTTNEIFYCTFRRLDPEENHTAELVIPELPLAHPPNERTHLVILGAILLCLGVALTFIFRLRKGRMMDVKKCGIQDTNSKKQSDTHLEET
Sequence of CD32a receptor (Fc gamma receptor) (P12318 36-218): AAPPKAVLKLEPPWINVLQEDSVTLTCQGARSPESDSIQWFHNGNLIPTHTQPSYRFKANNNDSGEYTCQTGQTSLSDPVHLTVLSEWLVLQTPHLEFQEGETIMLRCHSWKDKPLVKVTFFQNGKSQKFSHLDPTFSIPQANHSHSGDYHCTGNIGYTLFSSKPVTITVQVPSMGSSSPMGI
Sequence of PD-L1-Fc, human IgG Fc fusion protein, human recombinant, HEK293-derived, Phe19-Thr239 (R&D systems Cat #156-B7-100) (human) (Q9NZQ7 19-239 limits assumed): as the sequence (Q9NZQ7 19-239 limits assumed) above

atezolizumab (Tecentriq), Genentech Inc, Lot 3109904 (antibody)
Kd [1]: 0.67 nM
EC50 of IL-2 secretion in mixed lymphocyte reaction (MLR) [2]: 21.5 nM
binding affinity against that of B60-55-1 (log) [3]: 2 log
Kd [4]: 0.26 nM
Kd [5]: 0.62 nM
EC50 (C1q (Sigma, Cat #C1740)): 14.9 µg/mL
Kd [6]: 41 µM
Kd [7]: 16 µM
